The text below walks through data of patent US20110020220A1 (DELENEX THERAPEUTICS, published 2011).

For one experiment, the target named is T1, Biotinylated Abeta40 (UniProt P05067 672-711, biotinylated (site not stated)).
T1 construct: domain: Abeta40 (40 amino acid peptide); Captured on neutravidin-coated ELISA plates; also called beta-amyloid40
The experiment can be described thus: ELISA, biotinylated Abeta40 on neutravidin plates, ESBA212 0 to 500 nM. The method, then: (§1) The binding properties of ESBA212 were tested in an ELISA where Abeta40 and Abeta42, respectively, were used as antigens. 96-well plates were coated with 5 μg/ml neutravidin in dilution buffer (PBS/0.01% BSA/0.2% Tween-20) and incubated overnight at 4° C. The plates were then washed 3 times with TBS/0.005% Tween-20. Biotinylated Abeta40 or Abeta42 (1 μg/ml in dilution buffer) were added to each well and the plate incubated for 15 minutes at room temperature. Plates were washed as above and non-specific binding sites were blocked by addition of dilution buffer. The plates were incubated for another 1.5 hours at room temperature while shaking. After washing the prepared ESBA212 dilutions from 0 to 500 nM were added in triplicates to the wells and incubated for 1 hour at room temperature (RT) while shaking. Plates were washed and ESBA212 was detected by a purified rabbit polyclonal anti-ESBA212 antibody (1:10000 in dilution buffer) for 1 hour at RT. After washing a horseradish peroxidase-labelled anti-rabbit IgG (1:4000 in dilution buffer) was used to detect the previously bound rabbit antibodies and […]. The reaction was stopped by addition of 1 M HCl and the absorption read at 450 nm.
(§2) From the measured ESBA212 curve an EC50 could be calculated.

For the next experiment, the target named is T2, Biotinylated Abeta42 (UniProt P05067 672-713, biotinylated (site not stated)).
T2 construct: domain: Abeta42 (42 amino acid peptide); Captured on neutravidin-coated ELISA plates; also called beta-amyloid42
The experiment can be described thus: ELISA, biotinylated Abeta42 on neutravidin plates, ESBA212 0 to 500 nM. The method, then:
as §1, §2

T1 sequence (P05067 672-711 limits assumed): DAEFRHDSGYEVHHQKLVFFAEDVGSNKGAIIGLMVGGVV
T2 sequence (P05067 672-713 limits assumed): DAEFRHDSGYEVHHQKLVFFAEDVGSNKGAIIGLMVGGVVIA

B1: ESBA212 (scFv)
scFv: ADIVLTQSPSSLSASVGDRVTLTCRASSSVNYMHWYQQRPGKPPKALIYATSNLASGVPSRFSGSGSGTEFTLTISSLQPEDVAVYYCQQWRTNPPTFGQGTKLEVKRGGGGSGGGGSGGGGSGGGGSQVQLVQSGPEVKKPGASVKVSCTASGYTFTEYTMHWVRQAPGQGLEWMGGVNPYNDNTSYIRKLQGRVTLTVDRSSSTAYMELTSLTSDDTAVYYCARYGGLRPYYFPMDFWGQGTLVTVSS
notes: Humanized scFv with the CDRs of mouse antibody 22C4 on framework 2.3; also called scFv ESBA212; single chain antibody ESBA212
Take B1: the half-maximal effective concentration (EC50) with Biotinylated Abeta40 and with Biotinylated Abeta42 was 1 to 15 nM each time.
